Experimental data as given in US20070025968A1, “Methods for selecting and producing T cell peptide epitopes and vaccines incorporating said selected epitopes” (priority 1996, published 2007).

What was measured:
Conditions in all cases: remark: other sources report otherwise
[1] = target: HLA-A*0201 on mild-acid treated JY cells (human); experiment: competition vs FL-reference peptide, JY cells
[2] = target: HLA-A*0201 on mild-acid treated JY cells (human)
[3] = target: HLA-A*0201 on mild-acid treated JY cells (human); experiment: competition vs FL-reference peptide, JY cells, 4°C 24 hr
[4] = target: HLA-A*0201 on mild-acid treated JY cells (human); experiment: competition vs FL-reference peptide, JY cells, 26°C 24 hr
[5] = target: HLA-A*0201 on mild-acid treated JY cells (human); experiment: competition vs FL-reference peptide, JY cells, 26°C 3 hr

| Binder | IC50 [1] [µM] | other results |
| --- | --- | --- |
| FLPSDFFPSV [hepatitis B nucleocapsid peptide …] | 0.4 | – |
| DLMGYIPLV [HCVcore-132] | 5 | – |
| WLSLLVPFV [HBV surface 335] | 1 | – |
| PLEEELPRL [HBV Pol 594-602] | – | HLA molecules detectable after 2 hr at 37°C (NS = non stable) [2]: < 10% |
| TLGIVCPI [HPV16 E7 86-93] | 0.7 | IC50 [3]: 0.7 µM; IC50 [4]: 3.1 µM; IC50 [5]: 6.5 µM |
